Residue numbers refer to the chain shown, from its start. Names may count otherwise.
Key:
ApPPO1 [1] = assay: PPO enzyme activity of purified MBP-fused ApPPO1 wild type and variants; type: biochemical, Auxenochlorella protothecoides; conditions: PPO enzyme activity relative to ApPPO1 wild type; MBP-fused protein
Experimental: Thus, PPO proteins of wild type and variants were expressed as fused to MBP and were used for experiments.
The following process for purification of PPO protein was performed in a 4° C. cold room. […] The column was washed with 3 column volumes of buffer and the presence of protein in the washing solution was examined. When the protein was no longer detected, the washing procedure was terminated. Then, the MBP-PPO protein was eluted with approximately 2 column volumes of buffer containing 20 mM maltose. The protein concentration of each eluent was determined and the elution was stopped when the protein was no longer detected. Ten microliter of each fraction was investigated for protein quantification and SDS-PAGE analysis. The highly pure fractions of PPO protein variants were used for the enzyme assay.
Since protoporphyrinogen IX, a substrate of PPO protein, was not commercially available, it was chemically synthesized in the laboratory. Overall process was performed in dark under nitrogen stream. […] of protoporphyrin IX was dissolved in 20 ml of 20% (v/v) EtOH, and stirred under dark condition for 30 minutes. The obtained protoporphyrin IX solution was put into a 15 ml screw tube in an amount of 800 μl, and flushed with nitrogen gas for 5 minutes. To this, 1.5 g of sodium amalgam was added and vigorously shaken for 2 minutes. The lid was opened to exhaust hydrogen gas in the tube. Thereafter, the lid was closed and incubated for 3 minutes. The protoporphyrinogen IX solution was filtered using syringe and cellulose membrane filter. To 600 μl of the obtained protoporphyrinogen IX solution, approximately 300 μl of 2M MOPS [3-(N-morpholino) propanesulfonic acid] was added to adjust pH to 8.0. To determine the enzyme activity of PPO protein, a reaction mixture was prepared with the following composition (based on 10 ml): 50 mM Tris-Cl (pH 8.0); 50 mM NaCl; 0.04% (v/v) Tween 20; 40 mM glucose (0.072 g); 5 units glucose oxidase (16.6 mg); and 10 units catalase (1 μl).
Hundred and eighty microliters of a reaction mixture […] were placed in 96 well plates and 20 μl of purified PPO proteins were added. After 50 μl of the mineral oil was layered, the reaction was initiated by adding the substrate, protoporphyrinogen IX solution, to a final concentration of 50 μM. The reaction proceeded at room temperature for 30 min and the fluorescence of protoporphyrin IX was measured using Microplate reader (Sense, Hidex) (excitation: 405 nm; emission: 633 nm). To calculate the PPO enzyme activity, the protoporphyrinogen IX solution was kept open in the air overnight to oxidize the solution. To this, 2.7 N HCl was added, and the absorbance at 408 nm was measured. A standard curve was generated using standard protoporphyrin IX, and PPO activity was measured by calibration of protoporphyrin IX using the standard curve of protoporphyrin IX.
Activities of variants were presented relatively compared to that of wild type.

ApPPO1 [2] = assay: Herbicide tolerance test of ApPPO1 wild type and variants in PPO-deficient E. coli BT3(ΔPPO), growth on herbicide-containing LB agar; type: cell-based, Auxenochlorella protothecoides; conditions: relative to ApPPO1 WT; for Herbicide tolerance, tiafenacil: up to 200 μM (FIGS. 7-12)
Experimental: Then, the extent of tolerance was evaluated.

[3] = dark, up to 100 μM (FIGS. 7-12)
[4] = dark, up to 400 μM (FIGS. 7-12)

B1: A215L: ApPPO1 (SEQ ID NO: 1) variant (protein)
chain: MPFTHLKPLNRLLGSPRARHPHVAPQAVSVTNTSTTRPGGRSSAPGIPGDAEYDVVIVGAGISGLTTAQALAKQYSDAVPRLLVTEARDCVGGNIITRRDGGYQWEEGPNSFQPSDAVLRAAVDAGVADRLVLGDPKAPRYVYWGGRLRATPSGPDVLTFDLLSLWGKLRAGLGAAGFKAPLPEREESVKEFVTRNLGEEVFQRLIEPFCSGVYLGDPAKLSMKAAFGKVYDLEKGGGSIVGGVLALMKARKQKPPEPRPADLPPKPKGQTVGSFDKGLVTLPSAIAEELGDRVVTGWKLESIDRSGDRFQLTYDTPQGRKKVSARSVALTVPAYTAASLLESRFPKLGKALSSIYYPPVASVALSYPETAILPERLGSDGHLAGFGQLHPRTQGVTTLGTIYASSLFPGRVPEGKVLLLSYFGGATNTRVATMPHGEIVSQVDKDLRKMLIRSDAESPHTVNVTVWPRAIPQFNVGHTDLIQEAKDDLASQGWQGLHLGGNYVAGVALGKCMEAGYKQAAELASHVKSLAT
modifications: Synthetic (Protoporphyrinogen IX oxidase (ApPPO1) of Auxenochlorella protothecoides)
ApPPO1 [1]
  Activity (%): 76%
ApPPO1 [2]; light, up to 10 μM (FIG. 5)
  Herbicide tolerance, pentoxazone: ++ (10-99 fold higher tolerance)
ApPPO1 [2]; light, up to 10 μM (FIG. 6)
  Herbicide tolerance, pyraflufenethyl: +++ (100-999 fold higher tolerance)
ApPPO1 [2]; light, up to 25 μM (FIG. 3)
  Herbicide tolerance, sulfentrazone: +++ (100-999 fold higher tolerance)
ApPPO1 [2]; light, up to 25 μM (FIG. 4)
  Herbicide tolerance, Fomesafen: +++ (100-999 fold higher tolerance)
  Herbicide tolerance, acifluorfen: +++ (100-999 fold higher tolerance)
ApPPO1 [2]; light, up to 100 μM (FIG. 2)
  Herbicide tolerance, saflufenacil: ++++ (1,000-9,999 fold higher tolerance)
ApPPO1 [2]; light, up to 200 μM (FIG. 3)
  Herbicide tolerance, flumioxazin: ++++ (1,000-9,999 fold higher tolerance)

B2: Y422I: ApPPO1 (SEQ ID NO: 1) variant (protein)
chain: B1 chain with L215A, Y422I
modifications: Synthetic (Protoporphyrinogen IX oxidase (ApPPO1) of Auxenochlorella protothecoides)
ApPPO1 [1]
  Activity (%): 91%

B3: L389T + Y422M: ApPPO1 (SEQ ID NO: 1) variant (protein)
chain: B1 chain with L215A, L389T, Y422M
modifications: Synthetic (Protoporphyrinogen IX oxidase (ApPPO1) of Auxenochlorella protothecoides)
ApPPO1 [1]
  Activity (%): 15%

B4: R140A + Y422M: ApPPO1 (SEQ ID NO: 1) variant (protein)
chain: B1 chain with R140A, L215A, Y422M
modifications: Synthetic (Protoporphyrinogen IX oxidase (ApPPO1) of Auxenochlorella protothecoides)
ApPPO1 [1]
  Activity (%): 29%
ApPPO1 [2]; [3]
  Herbicide tolerance, flumioxazin: ++++ (1,000-9,999 fold higher tolerance)
ApPPO1 [2]; dark
  Herbicide tolerance, tiafenacil: ++++ (1,000-9,999 fold higher tolerance)
ApPPO1 [2]; [4]
  Herbicide tolerance, sulfentrazone: ++++ (1,000-9,999 fold higher tolerance)

B5: V360I + Y422I: ApPPO1 (SEQ ID NO: 1) variant (protein)
chain: B1 chain with L215A, V360I, Y422I
modifications: Synthetic (Protoporphyrinogen IX oxidase (ApPPO1) of Auxenochlorella protothecoides)
ApPPO1 [1]
  Activity (%): 16%

B6: I402T + Y422M: ApPPO1 (SEQ ID NO: 1) variant (protein)
chain: B1 chain with L215A, I402T, Y422M
modifications: Synthetic (Protoporphyrinogen IX oxidase (ApPPO1) of Auxenochlorella protothecoides)
ApPPO1 [1]
  Activity (%): 21%

B7: F209A + Y422M: ApPPO1 (SEQ ID NO: 1) variant (protein)
chain: B1 chain with F209A, L215A, Y422M
modifications: Synthetic (Protoporphyrinogen IX oxidase (ApPPO1) of Auxenochlorella protothecoides)
ApPPO1 [1]
  Activity (%): 51%

B8: Y422T: ApPPO1 (SEQ ID NO: 1) variant (protein)
chain: B1 chain with L215A, Y422T
modifications: Synthetic (Protoporphyrinogen IX oxidase (ApPPO1) of Auxenochlorella protothecoides)
ApPPO1 [1]
  Activity (%): 84%

B9: A215C + Y422M: ApPPO1 (SEQ ID NO: 1) variant (protein)
chain: B1 chain with L215C, Y422M
modifications: Synthetic (Protoporphyrinogen IX oxidase (ApPPO1) of Auxenochlorella protothecoides)
ApPPO1 [1]
  Activity (%): 58%
ApPPO1 [2]; [3]
  Herbicide tolerance, flumioxazin: +++++ (more than 10,000 fold higher tolerance)
ApPPO1 [2]; dark
  Herbicide tolerance, tiafenacil: +++++ (more than 10,000 fold higher tolerance)
ApPPO1 [2]; [4]
  Herbicide tolerance, sulfentrazone: ++++ (1,000-9,999 fold higher tolerance)

B10: A215L + Y422M: ApPPO1 (SEQ ID NO: 1) variant (protein)
chain: B1 chain with Y422M
modifications: Synthetic (Protoporphyrinogen IX oxidase (ApPPO1) of Auxenochlorella protothecoides)
ApPPO1 [1]
  Activity (%): 34%
ApPPO1 [2]; [3]
  Herbicide tolerance, flumioxazin: +++++ (more than 10,000 fold higher tolerance)
ApPPO1 [2]; dark
  Herbicide tolerance, tiafenacil: +++++ (more than 10,000 fold higher tolerance)
ApPPO1 [2]; [4]
  Herbicide tolerance, sulfentrazone: ++++ (1,000-9,999 fold higher tolerance)

B11: F386V + Y422M: ApPPO1 (SEQ ID NO: 1) variant (protein)
chain: B1 chain with L215A, F386V, Y422M
modifications: Synthetic (Protoporphyrinogen IX oxidase (ApPPO1) of Auxenochlorella protothecoides)
ApPPO1 [1]
  Activity (%): 65%

B12: S362V + Y422I: ApPPO1 (SEQ ID NO: 1) variant (protein)
chain: B1 chain with L215A, S362V, Y422I
modifications: Synthetic (Protoporphyrinogen IX oxidase (ApPPO1) of Auxenochlorella protothecoides)
ApPPO1 [1]
  Activity (%): 21%

B13: R140A: ApPPO1 (SEQ ID NO: 1) variant (protein)
chain: B1 chain with R140A, L215A
modifications: Synthetic (Protoporphyrinogen IX oxidase (ApPPO1) of Auxenochlorella protothecoides)
ApPPO1 [1]
  Activity (%): 88%

B14: V213C + Y422M: ApPPO1 (SEQ ID NO: 1) variant (protein)
chain: B1 chain with V213C, L215A, Y422M
modifications: Synthetic (Protoporphyrinogen IX oxidase (ApPPO1) of Auxenochlorella protothecoides)
ApPPO1 [1]
  Activity (%): 29%
ApPPO1 [2]; [3]
  Herbicide tolerance, flumioxazin: +++ (100-999 fold higher tolerance)
ApPPO1 [2]; dark
  Herbicide tolerance, tiafenacil: +++++ (more than 10,000 fold higher tolerance)
ApPPO1 [2]; [4]
  Herbicide tolerance, sulfentrazone: ++ (10-99 fold higher tolerance)

B15: V360M + Y422M: ApPPO1 (SEQ ID NO: 1) variant (protein)
chain: B1 chain with L215A, V360M, Y422M
modifications: Synthetic (Protoporphyrinogen IX oxidase (ApPPO1) of Auxenochlorella protothecoides)
ApPPO1 [1]
  Activity (%): 8%

B16: Y422M: ApPPO1 (SEQ ID NO: 1) variant (protein)
chain: B1 chain with L215A, Y422M
modifications: Synthetic (Protoporphyrinogen IX oxidase (ApPPO1) of Auxenochlorella protothecoides)
ApPPO1 [1]
  Activity (%): 93%

— patent US20220042033A1, “COMPOSITION AND METHOD FOR CONFERRING AND/OR ENHANCING TOLERANCE AGAINST HERBICIDES BY USING VARIANTS OF PPO” (FarmHannong Co., Ltd., priority 2017, published 2022)
